T1: CD79 (UniProt P11912 33-143; P40259 29-159, limits assumed)
T1 construct: also called CD79 antigen; soluble biotinylated CD79 antigen
T1 sequence (looked up) 1: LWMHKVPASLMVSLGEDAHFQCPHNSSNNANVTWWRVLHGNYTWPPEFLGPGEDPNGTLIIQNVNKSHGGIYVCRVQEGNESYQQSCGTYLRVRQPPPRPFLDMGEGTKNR
T1 sequence (looked up) 2: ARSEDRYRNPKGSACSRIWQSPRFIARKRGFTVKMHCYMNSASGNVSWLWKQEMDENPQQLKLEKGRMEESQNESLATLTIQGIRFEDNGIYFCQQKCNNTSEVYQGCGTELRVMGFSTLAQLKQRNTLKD


Key:
CD79 [1] = molecular target: T1, CD79; assay: binding kinetics of full length IgG to CD79; method not named (antibody is the 'Loading Sample')
CD79 [2] = molecular target: T1, CD79; assay: binding kinetics to CD79; method not named (antibody is the 'Loading Sample')
CD79 [3] = molecular target: T1, CD79; assay: antigen binding kinetics; method not named (antibody is the 'Loading Sample')

Binder	Kd (CD79 [1]) [nM]	koff (CD79 [1]) [s⁻¹]	kon (CD79 [1]) [M⁻¹ s⁻¹]	Kd (CD79 [2]) [nM]	koff (CD79 [2]) [s⁻¹]	kon (CD79 [2]) [M⁻¹ s⁻¹]	further results
affinity matured anti-CD79 antibody LB495/518 (antibody, V domains shown, Full length IgG produced from 293 cells; also called LB495/LB518) VH: QVQLVQSGAEVKKPGASVKVSCKASGYAFSYSWMNWVRQAPGQGLEWMGRIYPENGDTNYNGKFKGRVTMTRDTSISTAYMELSRLRSDDTAVYYCARWVYGYPHFDYWGQGTLVTVSS VL: DVVMTQSPLSLPVTLGQPASISCKSSQSLLDSDGKTYLNWLQQRPGQSPRRLIYLVSKLDSGVPDRFSGSGSGTDFTLKISRVEAEDVGVYYCWQGTHIPFTFGGGTKVEIK	3.64	0.000332	91200	–	–	–	–
affinity matured anti-CD79 antibody LB517/520 (antibody, V domains shown, Full length IgG produced from 293 cells; also called LB517/LB520) VH: QVQLVQSGAEVKKPGASVKVSCKASGYAFSYSWMNWVRQAPGQGLEWMGRIYPENGDTNYNGKFKGRVTMTRDTSISTAYMELSRLRSDDTAVYYCARWVYGLPHFDYWGQGTLVTVSS VL: DVVMTQSPLSLPVTLGQPASISCKSSQSLLDSDGKTYLNWLQQRPGQSPRRLIYLVSKLDSGVPDRFSGSGSGTDFTLKISRVEAEDVGVYYCWQGTHRPFTFGGGTKVEIK	2.4	0.000234	97800	–	–	–	–
affinity matured anti-CD79 antibody LB517/PRI47 (antibody, V domains shown, Full length IgG produced from 293 cells) VH: QVQLVQSGAEVKKPGASVKVSCKASGYAFSYSWMNWVRQAPGQGLEWMGRIYPENGDTNYNGKFKGRVTMTRDTSISTAYMELSRLRSDDTAVYYCARWVYGLPHFDYWGQGTLVTVSS VL: DVVMTQSPLSLPVTLGQPASISCKSSQSLLDSDGKTYLNWLQQRPGQSPRRLIYLVSKLDSGVPDRFSGSGSGTDFTLKISRVEAEDVGVYYCWQGTHFPFTFGGGTKVEIK	3.55	0.000311	87500	–	–	–	–
affinity matured anti-CD79 antibody LB495/521 (antibody, V domains shown, Full length IgG produced from 293 cells; also called LB495/LB521) VH: QVQLVQSGAEVKKPGASVKVSCKASGYAFSYSWMNWVRQAPGQGLEWMGRIYPENGDTNYNGKFKGRVTMTRDTSISTAYMELSRLRSDDTAVYYCARWVYGYPHFDYWGQGTLVTVSS VL: DVVMTQSPLSLPVTLGQPASISCKSSQSLLDSDGKTYLNWLQQRPGQSPRRLIYLVSKLDSGVPDRFSGSGSGTDFTLKISRVEAEDVGVYYCWQGTHVPFTFGGGTKVEIK	3.65	0.000362	99100	–	–	–	–
engineered anti-CD79 antibody LB630/519 (antibody, V domains shown, First NG motif of VH CDR2 engineered to NS; Produced in 293 cells by transient transfection; also called LB630/LB519) VH: QVQLVQSGAEVKKPGASVKVSCKASGYAFSYSWMNWVRQAPGQGLEWMGRIYPESGDTNYNGKFKGRVTMTRDTSISTAYMELSRLRSDDTAVYYCARWVYGLPHFDYWGQGTLVTVSS VL: DVVMTQSPLSLPVTLGQPASISCKSSQSLLDSDGKTYLNWLQQRPGQSPRRLIYLVSKLDSGVPDRFSGSGSGTDFTLKISRVEAEDVGVYYCWQGTHLPFTFGGGTKVEIK	–	–	–	–	–	–	Kd (CD79 [3]): < 0.001 nM; koff (CD79 [3]): < 1e-07 s⁻¹; kon (CD79 [3]): 55800 M⁻¹ s⁻¹
affinity matured anti-CD79 antibody LB495/520 (antibody, V domains shown, Full length IgG produced from 293 cells; also called LB495/LB520) VH: QVQLVQSGAEVKKPGASVKVSCKASGYAFSYSWMNWVRQAPGQGLEWMGRIYPENGDTNYNGKFKGRVTMTRDTSISTAYMELSRLRSDDTAVYYCARWVYGYPHFDYWGQGTLVTVSS VL: DVVMTQSPLSLPVTLGQPASISCKSSQSLLDSDGKTYLNWLQQRPGQSPRRLIYLVSKLDSGVPDRFSGSGSGTDFTLKISRVEAEDVGVYYCWQGTHRPFTFGGGTKVEIK	3.76	0.000374	99600	–	–	–	–
humanized anti-CD79 antibody H1L1 (antibody, V domains shown) VH: QVQLVQSGAEVKKPGASVKVSCKASGYAFSYSWMNWVRQAPGQGLEWMGRIYPENGDTNYNGKFKGRVTMTRDTSISTAYMELSRLRSDDTAVYYCARWVYGYPHFDYWGQGTLVTVSS VL: DVVMTQSPLSLPVTLGQPASISCKSSQSLLDSDGKTYLNWFQQRPGQSPRRLIYLVSKLDSGVPDRFSGSGSGTDFTLKISRVEAEDVGVYYCWQGTHFPFTFGGGTKVEIK	–	–	–	59	0.0054	92000	–
affinity matured anti-CD79 antibody LB517/518 (antibody, V domains shown, Full length IgG produced from 293 cells; also called LB517/LB518) VH: QVQLVQSGAEVKKPGASVKVSCKASGYAFSYSWMNWVRQAPGQGLEWMGRIYPENGDTNYNGKFKGRVTMTRDTSISTAYMELSRLRSDDTAVYYCARWVYGLPHFDYWGQGTLVTVSS VL: DVVMTQSPLSLPVTLGQPASISCKSSQSLLDSDGKTYLNWLQQRPGQSPRRLIYLVSKLDSGVPDRFSGSGSGTDFTLKISRVEAEDVGVYYCWQGTHIPFTFGGGTKVEIK	2.24	0.000199	88500	–	–	–	–
affinity matured anti-CD79 antibody LB495/519 (antibody, V domains shown, Full length IgG produced from 293 cells; also called LB495/LB519) VH: QVQLVQSGAEVKKPGASVKVSCKASGYAFSYSWMNWVRQAPGQGLEWMGRIYPENGDTNYNGKFKGRVTMTRDTSISTAYMELSRLRSDDTAVYYCARWVYGYPHFDYWGQGTLVTVSS VL: DVVMTQSPLSLPVTLGQPASISCKSSQSLLDSDGKTYLNWLQQRPGQSPRRLIYLVSKLDSGVPDRFSGSGSGTDFTLKISRVEAEDVGVYYCWQGTHLPFTFGGGTKVEIK	3.14	0.000252	80300	–	–	–	–
engineered anti-CD79 antibody LB631/519 (antibody, V domains shown, Second NG motif of VH CDR2 engineered to NA; Produced in 293 cells by transient transfection; also called LB631/LB519) VH: QVQLVQSGAEVKKPGASVKVSCKASGYAFSYSWMNWVRQAPGQGLEWMGRIYPENGDTNYAGKFKGRVTMTRDTSISTAYMELSRLRSDDTAVYYCARWVYGLPHFDYWGQGTLVTVSS VL: DVVMTQSPLSLPVTLGQPASISCKSSQSLLDSDGKTYLNWLQQRPGQSPRRLIYLVSKLDSGVPDRFSGSGSGTDFTLKISRVEAEDVGVYYCWQGTHLPFTFGGGTKVEIK	–	–	–	–	–	–	Kd (CD79 [3]): 1.04 nM; koff (CD79 [3]): 6.1e-05 s⁻¹; kon (CD79 [3]): 58600 M⁻¹ s⁻¹
affinity matured anti-CD79 antibody LB517/521 (antibody, V domains shown, Full length IgG produced from 293 cells; also called LB517/LB521) VH: QVQLVQSGAEVKKPGASVKVSCKASGYAFSYSWMNWVRQAPGQGLEWMGRIYPENGDTNYNGKFKGRVTMTRDTSISTAYMELSRLRSDDTAVYYCARWVYGLPHFDYWGQGTLVTVSS VL: DVVMTQSPLSLPVTLGQPASISCKSSQSLLDSDGKTYLNWLQQRPGQSPRRLIYLVSKLDSGVPDRFSGSGSGTDFTLKISRVEAEDVGVYYCWQGTHVPFTFGGGTKVEIK	2.3	0.000201	87500	–	–	–	–
chimeric anti-CD79 antibody HcLc (antibody, V domains shown, Mouse VH fused to human IgG2 CH1, CH2 and CH3 domains; mouse VL fused to a human kappa CL domain) VH: QVQLQQSGPELVKPGASVKISCKASGYAFSYSWMNWVKQRPGKGLEWIGRIYPENGDTNYNGKFKGKVTLTADKSSSTAYMQLSSLTSEDSAVYFCARWVYGYPHFDYWGQGTTLTVSS VL: not shown	–	–	–	60	0.0056	93000	–

Second part, led by results:

Kd (CD79 [1]) [nM]	koff (CD79 [1]) [s⁻¹]	kon (CD79 [1]) [M⁻¹ s⁻¹]	Kd (CD79 [2]) [nM]	koff (CD79 [2]) [s⁻¹]	kon (CD79 [2]) [M⁻¹ s⁻¹]	Binder	further results
–	–	–	130	0.011	79000	humanized anti-CD79 antibody H3L3 (antibody, V domains shown) VH: QVQLVQSGAEVKKPGASVKVSCKASGYAFSYSWMNWVRQAPGQGLEWIGRIYPENGDTNYNGKFKGRVTLTADKSISTAYMELSRLRSDDTAVYYCARWVYGYPHFDYWGQGTLVTVSS VL: DVVMTQSPLSLPVTLGQPASISCKSSQSLLDSDGKTYLNWLQQRPGQSPKRLIYLVSKLDSGVPDRFSGSGSGTDFTLKISRVEAEDVGVYYCWQGTHFPFTFGGGTKVEIK	–
–	–	–	49	0.004	82000	humanized anti-CD79 antibody H1L3 (antibody, V domains shown) VH: QVQLVQSGAEVKKPGASVKVSCKASGYAFSYSWMNWVRQAPGQGLEWMGRIYPENGDTNYNGKFKGRVTMTRDTSISTAYMELSRLRSDDTAVYYCARWVYGYPHFDYWGQGTLVTVSS VL: DVVMTQSPLSLPVTLGQPASISCKSSQSLLDSDGKTYLNWLQQRPGQSPKRLIYLVSKLDSGVPDRFSGSGSGTDFTLKISRVEAEDVGVYYCWQGTHFPFTFGGGTKVEIK	–
–	–	–	90	0.0071	79000	humanized anti-CD79 antibody H2L1 (antibody, V domains shown) VH: QVQLVQSGAEVKKPGASVKVSCKASGYAFSYSWMNWVRQAPGQGLEWMGRIYPENGDTNYNGKFKGRVTMTADTSISTAYMELSRLRSDDTAVYYCARWVYGYPHFDYWGQGTLVTVSS VL: DVVMTQSPLSLPVTLGQPASISCKSSQSLLDSDGKTYLNWFQQRPGQSPRRLIYLVSKLDSGVPDRFSGSGSGTDFTLKISRVEAEDVGVYYCWQGTHFPFTFGGGTKVEIK	–
–	–	–	140	0.0086	61000	humanized anti-CD79 antibody H3L2 (antibody, V domains shown) VH: QVQLVQSGAEVKKPGASVKVSCKASGYAFSYSWMNWVRQAPGQGLEWIGRIYPENGDTNYNGKFKGRVTLTADKSISTAYMELSRLRSDDTAVYYCARWVYGYPHFDYWGQGTLVTVSS VL: DVVMTQSPLSLPVTLGQPASISCKSSQSLLDSDGKTYLNWLQQRPGQSPRRLIYLVSKLDSGVPDRFSGSGSGTDFTLKISRVEAEDVGVYYCWQGTHFPFTFGGGTKVEIK	–
–	–	–	61	0.0051	84000	humanized anti-CD79 antibody H2L3 (antibody, V domains shown) VH: QVQLVQSGAEVKKPGASVKVSCKASGYAFSYSWMNWVRQAPGQGLEWMGRIYPENGDTNYNGKFKGRVTMTADTSISTAYMELSRLRSDDTAVYYCARWVYGYPHFDYWGQGTLVTVSS VL: DVVMTQSPLSLPVTLGQPASISCKSSQSLLDSDGKTYLNWLQQRPGQSPKRLIYLVSKLDSGVPDRFSGSGSGTDFTLKISRVEAEDVGVYYCWQGTHFPFTFGGGTKVEIK	–
–	–	–	46	0.0046	100000	humanized anti-CD79 antibody H2L2 (antibody, V domains shown) VH: QVQLVQSGAEVKKPGASVKVSCKASGYAFSYSWMNWVRQAPGQGLEWMGRIYPENGDTNYNGKFKGRVTMTADTSISTAYMELSRLRSDDTAVYYCARWVYGYPHFDYWGQGTLVTVSS VL: DVVMTQSPLSLPVTLGQPASISCKSSQSLLDSDGKTYLNWLQQRPGQSPRRLIYLVSKLDSGVPDRFSGSGSGTDFTLKISRVEAEDVGVYYCWQGTHFPFTFGGGTKVEIK	–
–	–	–	290	0.013	43000	humanized anti-CD79 antibody H3L1 (antibody, V domains shown) VH: QVQLVQSGAEVKKPGASVKVSCKASGYAFSYSWMNWVRQAPGQGLEWIGRIYPENGDTNYNGKFKGRVTLTADKSISTAYMELSRLRSDDTAVYYCARWVYGYPHFDYWGQGTLVTVSS VL: DVVMTQSPLSLPVTLGQPASISCKSSQSLLDSDGKTYLNWFQQRPGQSPRRLIYLVSKLDSGVPDRFSGSGSGTDFTLKISRVEAEDVGVYYCWQGTHFPFTFGGGTKVEIK	–

Source: patent publication EP4796567A2 (Nepenthe Bioscience, LLC, dated 2026)
